Experiments:
[1] = biological target: human IL-6 (as added in the B9 and 7TD1 bioassays) (human, UniProt P05231 30-212); assay: cell-based or functional assay
[2] = biological target: T1, bacterially produced human IL-6 (human, UniProt P05231 30-212); assay: SPR; purified Fab over biotinylated IL-6 on streptavidin chip
T1 construct: also called bactIL-6; prokaryotic IL-6
Protocol: From the washing phase the off-rate (kd) was determined, while from the injection phase the on-rate (ka) was calculated using the concentration and off-rate as parameters.

Binder | IC50, 7TD1 proliferation assay, exp 22.06 [1] | IC50, 7TD1 proliferation assay, exp 29.06 [1] | Rel. Potency, 7TD1, exp 29.06 [1] | IC50, 7TD1 proliferation assay, exp 7.07 [1] | Rel. Potency, 7TD1, exp 7.07 [1] | Ka [2] | Kd [2] | koff [2] | kon [2]
129F2 (germlined variant of 68F2), full-length IgG1 (antibody, V domains shown) VH: EVQLQESGPGLVKPSQTLSLTCTVSGGSITSRYYAWSWIRQPPGKGLEWIGVIDYDGDTYYSPSLKSRVTISWDTSKNQFSLKLSSVTAEDTAVYYCARDPDVVTGFHYDYWGQGTMVTVSS VL: QSALTQPPSVSGTPGQTVTISCAGANNDIGTYAYVSWYQQLPGTAPKLMIYKVTTRASGIPDRFSGSKSGNTASLTISGLQSEDEADYYCASYRNFNNAVFGGGTKLTVL | 0.703 pM | 0.517 pM | 1.08 | – | – | – | – | – | –
129E11 (germlined variant of 68F2), full-length IgG1 (antibody, V domains shown) VH: EVQLQESGPGLVKPSQTLSLTCTVSGGSITSRYYAWSWIRQPPGKGLEWMGVIDYDGDTYYSPSLKSRVTISVDTSKNQFSLKLSSVTAEDTAVYYCARDPDVVTGFHYDYWGQGTLVTVSS VL: QSALTQPPLVSGSPGQTVTISCAGANNDIGTYAYVSWYQQLPGTAPKLLIYKVTTRASGVPDRFSGSKSGNTASLTISGLQSEDEADYYCASYRNFNNAVFGTGTKLTVL | – | 0.857 pM | 0.65 | 1.55 pM | 0.88 | – | – | – | –
126A3 (germlined variant of 68F2), full-length IgG1 (antibody, V domains shown) VH: EVQLQESGPGLVKPSQTLSLTCTVSGGSITTRYYAWSWIRQPPGKGLEWIGVIDYDGDTYYSPSLKSRVTISVDTSKNQFSLKLSSVTAADTAVYYCARDPDVVTGFHYDYWGQGTMVTVSS VL: QSALTQPPSVSGAPGQTVTISCAGANNDIGTYAYVSWYQQLPGTAPKLLIYKVTTRASGIPSRFSGSKSGNTASLTITGLQSEDEADYYCASYRNFNNAVFGRGTKLTVL | – | 0.564 pM | 0.99 | 0.63 pM | 2.16 | – | – | – | –
127F1 (germlined variant of 68F2), full-length IgG1 (antibody, V domains shown) VH: EVQLQESGPGLVKPSQTLSLTCTVSGGSITTRYYAWSWIRQPPGKGLEWIGVIDYDGDTYYSPSLKSRVSISWDTSKNQFSLKLSSVTAADTAVYYCARDPDVVTGFHYDYWGQGTLVTVSS VL: QSVLTQPPSVSGTPGQRVTISCAGANNDIGTYAYVSWYQQLPGTAPKLLIYKVTTRASGVPDRFSGSKSGNSASLTITGLQSEDEADYYCASYRNFNNAVFGGGTHLTVL | – | 0.637 pM | 0.88 | 1.49 pM | 0.91 | – | – | – | –
Fab 18F8 (Fab, V domains shown, Fab) VH: EVQLVESGGGLVQPGGSLRLSCAASGFTFSRNAMSWVRQAPGKGLEWVSAINSGGGSTSYADSVKGRFTISRDNAKNTLYLQMNSLKPEDTAVYYCAKEGYTGWKDPMYDYWGQGTQVTVSS VL: QSALTQPSALSVTLGQTAKITCQGGSLGSRYAHWYQQKPGQAPVLVIYDDDSRPSGIPERFSGSSSGGRATLTISGAQAEDEGDYYCQSADTSEHIVFGGGTHLTVLG | – | – | – | – | – | 6.18e+07 M⁻¹ | 16200 pM | 0.000784 s⁻¹ | 48400 M⁻¹ s⁻¹
Fab 28C6 (Fab, V domains shown, Fab) VH: QVQLVESGGGLVQPGGSLRLSCAASGFTFSNYYMTWVRQAPGKGLEWVSSIYSFSGDTAYADSVKGRFTISRDNAKNTLYLQMNKLKSEDTAVYYCTRDLGGVVVTANGYDYWGQGTQVTVSS VL: DIVMTQTPSSLSASLGDRVTITCQASQSISTELSWYQQKPGQTPKLLIYGASRLQTGVPARFSGSGSGTSFTLTISGLEAEDLATYYCLQDYSWPYSFGSGTRL | – | – | – | – | – | 4.04e+07 M⁻¹ | 24800 pM | 0.0025 s⁻¹ | 101000 M⁻¹ s⁻¹

Reference: patent US20220073604A1 (ARGENX BVBA, published 2022)
